# Experimental data published in the supplement of paper PMC10567573.
# B1: KRT18 (parent)
# chain: KSQDLAKIMADIRAQYDELARKNR
# B2: NECAB1 (parent)
# chain: NLDTEELCEYFSQHLGEYENVLAA
# Variants of: B1
# Assay: protein stability index of a GFP-peptide fusion (GPS, HEK-293T) (PSI 1-6); higher = more stable
# Details: c terminus: a fixed tail appended
# 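Note: lentivirally expressed fusions sorted by FACS into six bins by GFP to DsRed ratio, PSI derived from sequencing read proportions per bin multiplied by bin number.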
row,Variant,protein stability index
1,KSQDLAKIMADIRAQYDELARKER [N23E],3.83
2,KSQDLAKIMADIRAQYDELARKFR [N23F],2.07
3,KSQDLAKIMADIRAQYDELARKGR [N23G],2.61
4,KSQDLAKIMADIRAQYDELARKHR [N23H],2.56
5,KSQDLAKIMADIRAQYDELARKIR [N23I],2.58
6,KSQDLAKIMADIRAQYDELARKKR [N23K],2.87
7,KSQDLAKIMADIRAQYDELARKLR [N23L],2.51
8,KSQDLAKIMADIRAQYDELARKMR [N23M],2.02
9,KSQDLAKIMADIRAQYDELARKPR [N23P],3.52
10,KSQDLAKIMADIRAQYDELARKQR [N23Q],2.65
11,KSQDLAKIMADIRAQYDELARKRR [N23R],2.5
12,KSQDLAKIMADIRAQYDELARKSR [N23S],3.29
13,KSQDLAKIMADIRAQYDELARKTR [N23T],2.88
14,KSQDLAKIMADIRAQYDELARKVR [N23V],3.04
15,KSQDLAKIMADIRAQYDELARKWR [N23W],2.33
16,KSQDLAKIMADIRAQYDELARKYR [N23Y],1.94
17,KSQDLAKIMADIRAQYDELARKNA [R24A],3.33
18,KSQDLAKIMADIRAQYDELARKNC [R24C],1.92

row,Variant,protein stability index
1,KSQDLAKIMADIRAQYDELARKND [R24D],3.81
2,KSQDLAKIMADIRAQYDELARKNE [R24E],3.17
3,KSQDLAKIMADIRAQYDELARKNF [R24F],2.79
4,KSQDLAKIMADIRAQYDELARKNG [R24G],3.57
5,KSQDLAKIMADIRAQYDELARKNH [R24H],2.81
6,KSQDLAKIMADIRAQYDELARKNI [R24I],2.1
7,KSQDLAKIMADIRAQYDELARKNK [R24K],3.46
8,KSQDLAKIMADIRAQYDELARKNL [R24L],1.69
9,KSQDLAKIMADIRAQYDELARKNM [R24M],3.07
10,KSQDLAKIMADIRAQYDELARKNN [R24N],3.13
11,KSQDLAKIMADIRAQYDELARKNP [R24P],3.16
12,KSQDLAKIMADIRAQYDELARKNQ [R24Q],2.95
13,KSQDLAKIMADIRAQYDELARKNS [R24S],2.61
14,KSQDLAKIMADIRAQYDELARKNT [R24T],3.13
15,KSQDLAKIMADIRAQYDELARKNV [R24V],2.57
16,KSQDLAKIMADIRAQYDELARKNW [R24W],2.13
17,KSQDLAKIMADIRAQYDELARKNY [R24Y],2.01

# Variants of: B2
# Assay: as above
# Details: c terminus: a fixed tail appended
row,Variant,protein stability index
1,ALDTEELCEYFSQHLGEYENVLAA [N1A],2.94
2,CLDTEELCEYFSQHLGEYENVLAA [N1C],2.67
3,DLDTEELCEYFSQHLGEYENVLAA [N1D],1.87
4,ELDTEELCEYFSQHLGEYENVLAA [N1E],3.7
5,FLDTEELCEYFSQHLGEYENVLAA [N1F],1.68
6,GLDTEELCEYFSQHLGEYENVLAA [N1G],3.68
7,HLDTEELCEYFSQHLGEYENVLAA [N1H],3.35
8,ILDTEELCEYFSQHLGEYENVLAA [N1I],2.66
9,KLDTEELCEYFSQHLGEYENVLAA [N1K],3.33
10,LLDTEELCEYFSQHLGEYENVLAA [N1L],2.53
11,MLDTEELCEYFSQHLGEYENVLAA [N1M],3.17
12,PLDTEELCEYFSQHLGEYENVLAA [N1P],3.68
13,QLDTEELCEYFSQHLGEYENVLAA [N1Q],3.41
14,RLDTEELCEYFSQHLGEYENVLAA [N1R],3.54
15,SLDTEELCEYFSQHLGEYENVLAA [N1S],3.93
16,TLDTEELCEYFSQHLGEYENVLAA [N1T],3.22
17,VLDTEELCEYFSQHLGEYENVLAA [N1V],3.12
18,WLDTEELCEYFSQHLGEYENVLAA [N1W],1.71
19,YLDTEELCEYFSQHLGEYENVLAA [N1Y],1.83
20,NADTEELCEYFSQHLGEYENVLAA [L2A],2.99

row,Variant,protein stability index
1,NCDTEELCEYFSQHLGEYENVLAA [L2C],2.25
2,NDDTEELCEYFSQHLGEYENVLAA [L2D],4.72
3,NEDTEELCEYFSQHLGEYENVLAA [L2E],4.97
4,NFDTEELCEYFSQHLGEYENVLAA [L2F],3.05
5,NGDTEELCEYFSQHLGEYENVLAA [L2G],3.85
6,NHDTEELCEYFSQHLGEYENVLAA [L2H],3.52
7,NIDTEELCEYFSQHLGEYENVLAA [L2I],2.23
8,NKDTEELCEYFSQHLGEYENVLAA [L2K],3.9
9,NMDTEELCEYFSQHLGEYENVLAA [L2M],3.46
10,NNDTEELCEYFSQHLGEYENVLAA [L2N],3.72
11,NPDTEELCEYFSQHLGEYENVLAA [L2P],1.8
12,NQDTEELCEYFSQHLGEYENVLAA [L2Q],4.12
13,NRDTEELCEYFSQHLGEYENVLAA [L2R],4
14,NSDTEELCEYFSQHLGEYENVLAA [L2S],4.11
15,NTDTEELCEYFSQHLGEYENVLAA [L2T],3.52
16,NVDTEELCEYFSQHLGEYENVLAA [L2V],1.79
17,NWDTEELCEYFSQHLGEYENVLAA [L2W],2.21
18,NYDTEELCEYFSQHLGEYENVLAA [L2Y],2.78
19,NLATEELCEYFSQHLGEYENVLAA [D3A],2.25
20,NLCTEELCEYFSQHLGEYENVLAA [D3C],2.12

row,Variant,protein stability index
1,NLETEELCEYFSQHLGEYENVLAA [D3E],3.24
2,NLFTEELCEYFSQHLGEYENVLAA [D3F],2.36
3,NLGTEELCEYFSQHLGEYENVLAA [D3G],1.48
4,NLHTEELCEYFSQHLGEYENVLAA [D3H],2.11
5,NLITEELCEYFSQHLGEYENVLAA [D3I],1.41
6,NLKTEELCEYFSQHLGEYENVLAA [D3K],1.86
7,NLLTEELCEYFSQHLGEYENVLAA [D3L],2.01
8,NLMTEELCEYFSQHLGEYENVLAA [D3M],1.88
9,NLNTEELCEYFSQHLGEYENVLAA [D3N],1.64
10,NLPTEELCEYFSQHLGEYENVLAA [D3P],3.14
11,NLQTEELCEYFSQHLGEYENVLAA [D3Q],1.94
12,NLRTEELCEYFSQHLGEYENVLAA [D3R],1.59
13,NLSTEELCEYFSQHLGEYENVLAA [D3S],2.55
14,NLTTEELCEYFSQHLGEYENVLAA [D3T],2.57
15,NLVTEELCEYFSQHLGEYENVLAA [D3V],1.53
16,NLWTEELCEYFSQHLGEYENVLAA [D3W],2.12
17,NLYTEELCEYFSQHLGEYENVLAA [D3Y],1.94
18,NLDAEELCEYFSQHLGEYENVLAA [T4A],2.75
19,NLDCEELCEYFSQHLGEYENVLAA [T4C],2.64
